Laboratory results from US20190016764A1 (KYUNGPOOK NATIONAL UNIVERSITY INDUSTRY ACADEMIC COOPERATION …, published 2019).
No end group written: not given here.

B2: soluble EPCR (endothelial protein C receptor) (receptor, UniProt Q9UNN8 18-210, looked up)
chain: SQDASDGLQRLHMLQISYFRDPYHVWYQGNASLGGHLTHVLEGPDTNTTIIQLQPLQEPESWARTQSGLQSYLLQFHGLVRLVHQERTLAFPLTIRCFLGCELPPEGSRAHVFFEVAVNGSSFVSFRPERALWQADTQVTSGVVTFTLQQLNAYNRTRYELREFLEDTCVQYVQKHISAENTKGSQTSRSYTS
notes: also called sEPCR

How the values were obtained:
[1] = molecular target: T1, TFMG (TRAP-ferritin monomer fragment-linker-PC-Gla fusion polypeptide)
T1 chain: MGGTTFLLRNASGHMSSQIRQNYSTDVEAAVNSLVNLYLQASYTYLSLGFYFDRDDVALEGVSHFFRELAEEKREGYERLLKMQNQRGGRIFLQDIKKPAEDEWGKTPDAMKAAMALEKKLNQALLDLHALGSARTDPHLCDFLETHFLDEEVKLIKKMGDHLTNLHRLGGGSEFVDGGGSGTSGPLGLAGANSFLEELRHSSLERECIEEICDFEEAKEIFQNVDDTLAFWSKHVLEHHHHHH

[2] = molecular target: T2, wild type Protein C (PC) (UniProt P04070 43-461); assay: solid-phase ELISA, sEPCR coated on the plate, detection with anti-protein C polyclonal antibody; Kd(app)
T2 construct: also called wild-type PC
Experimental: (§1) To evaluate the interaction of the wild-type PC, PC-Gla peptides, TFG, and TFMG with EPCR, 96-well flat microtiter plates were coated with soluble EPCR in 20 mM carbonate-bicarbonate buffer (pH 9.6) containing 0.02% sodium azaide, overnight at 4° C. After the plates were washed three times in TBS buffer (0.1 M NaCl, 0.02 M Tris-HCl, pH 7.4) containing 0.05% Tween 20, the plates were incubated with wild-type PC, PC-Gla peptides, TFG, and TFMG ([…]) diluted in the buffer for 1 h. After the plates were rinsed again, they were incubated with a goat anti-protein C polyclonal antibody (1:1000) for 1 h. Then, the plates were washed and incubated with rabbit anti-goat IgG (KPL, MD, 1:1000) for 1 h. After washing, the plates were incubated with 2,2′-azino-di(3-ethylbenzthiazoline-6-sulfonate) (ABTS; KPL, Gaithersburg, Md.). Colorimetric analysis was performed by measuring absorbance values at 405 nm.
(§2) First, a solid-phase ELISA was used to measure the binding affinity of TFG or TFMG toward the PC-Gla receptor, EPCR. In this assay, the efficiency of their binding to soluble EPCR (sEPCR) was compared. […] TFG and TFMG, respectively.

[3] = molecular target: T3, EPCR in mouse vena cava (mouse, UniProt Q64695 18-242); assay: immunohistochemistry of mouse vena cava after i.v. injection of the fluorescence-labelled molecule; comparison with TFG and TFMG
T3 construct: whole, on cells; Endogenous receptor in tissue sections of C57BL/6 mice; also called EPCR (mouse, in vivo)
T3 sequence (looked up): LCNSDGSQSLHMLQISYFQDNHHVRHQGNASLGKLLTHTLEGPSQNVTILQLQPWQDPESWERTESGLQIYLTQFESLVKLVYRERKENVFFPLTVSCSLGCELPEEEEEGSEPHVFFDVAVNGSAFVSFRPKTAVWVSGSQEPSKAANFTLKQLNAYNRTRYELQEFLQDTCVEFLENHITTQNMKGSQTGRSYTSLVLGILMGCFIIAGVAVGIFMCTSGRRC
Experimental: Twenty-four hours prior to CLP surgery, fluorescence labeled-PC-Gla, TFG, and TFMG (200 nM/mouse) was intravenously injected into the mice, respectively. After 24 h, mouse vena cava was enucleated and fixed in visikol for 24 h. Subsequently, vena cava was embedded in optimum cutting temperature (OCT) compound (Tissue Tek) at −80° C. Consecutive sections were incubated with anti-EPCR antibody (Santa Cruz, Calif.), anti-rabbit Alexa 488 (green), anti-CD31 antibody, and anti-rabbit Alexa 350 (blue), and observed by confocal microscopy at 63× magnification (TCS-SP5, Leica microsystem, Germany).

[4] = molecular target: B2; assay: solid-phase ELISA, sEPCR coated on the plate, detection with anti-protein C polyclonal antibody; Kd(app)
Experimental: as §1, §2

B1: MMP-2 (matrix metalloproteinase-2), p-aminophenylmercuric acetate-activated (protein)
chain: YNFFPRKPKWDKNQITYRIIGYTPDLDPETVDDAFARAFQVWSDVTPLRFSRIHDGEADIMINFGRWEHGDGYPFDGKDGLLAHAFAPGTGVGGDSHFDDDELWTLGEGQVVRVKYGNADGEYCKFPFLFNGKEYNSCTDTGRSDGFLWCSTTYNFEKDGKYGFCPHEALFTMGGNAEGQPCKFPFRFQGTSYDSCTTEGRTDGYRWCGTTEDYDRDKKYGFCPETAMSTVGGNSEGAPCVFPFTFLGNKYESCTSAGRSDGKMWCATTANYDDDRKWGFCPDQGYSLFLVAAHEFGHAMGLEHSQDPGALMAPIYTYTKNFRLSQDDIKGIQELYGASPDIDLGTGPTPTLGPVTPEICKQDIVFDGIAQIRGEIFFFKDRFIWRTVTPRDKPMGPLLVATFWPELPEKIDAVYEAPQEEKAVFFAGNEYWIYSASTLERGYPKPLTSLGLPPDVQRVDAAFNWSKNKKTYIFAGDKFWRYNEVKKKMDPGFPKLIADAWNAIPDNLDAVVDLQGGGHSYFFKGAYYLKLENQSLKSVKFGSIKSDWLGC
[1]
  cleavage of the linker and release of PC-Gla (HPLC, MALDI-ToF): TFMG was cleaved by MMP-2 to release PC-Gla in agreement with the calculated mass (5,518.6 Da by MALDI-ToF)

## B2
[2]
  Kd: ~31.3 nM

B3: PC-Gla peptide (Protein C Gla domain polypeptide) (peptide)
peptide: ANSFLEELRHSSLERECIEEICDFEEAKEIFQNVDDTLAFWSKHV
modifications: ends and bridges not checked; also: labelled with a fluorescent dye for cell and in vivo assays
notes: No gamma-carboxylation of Glu residues is stated; It was labelled with a fluorescent dye for the cell and in vivo assays; also called PC-Gla domain; PC-Gla peptides
[3]
  binding result: binds

B4: TFG (TRAP-ferritin monomer fragment-PC-Gla fusion polypeptide) (other)
chain: MGGTTFLLRNASGHMSSQIRQNYSTDVEAAVNSLVNLYLQASYTYLSLGFYFDRDDVALEGVSHFFRELAEEKREGYERLLKMQNQRGGRIFLQDIKKPAEDEWGKTPDAMKAAMALEKKLNQALLDLHALGSARTDPHLCDFLETHFLDEEVKLIKKMGDHLTNLHRLGGGSEFVDGGGSGTSANSFLEELRHSSLERECIEEICDFEEAKEIFQNVDDTLAFWSKHVLEHHHHHH
notes: also called TRAP-ferritin-PC-Gla; TFG nanocage
[4]
  Kd: 31.5 nM

B5: TFMG (TRAP-ferritin monomer fragment-linker-PC-Gla fusion polypeptide) (other)
chain: MGGTTFLLRNASGHMSSQIRQNYSTDVEAAVNSLVNLYLQASYTYLSLGFYFDRDDVALEGVSHFFRELAEEKREGYERLLKMQNQRGGRIFLQDIKKPAEDEWGKTPDAMKAAMALEKKLNQALLDLHALGSARTDPHLCDFLETHFLDEEVKLIKKMGDHLTNLHRLGGGSEFVDGGGSGTSGPLGLAGANSFLEELRHSSLERECIEEICDFEEAKEIFQNVDDTLAFWSKHVLEHHHHHH
notes: also called TMFG; TFME
[4]
  Kd: 30.7 nM
